From patent US20190046600A1 (published 2019)
Square brackets hold non-standard residues; d marks the D form. Phe(4-guanidino) = N=C(N)Nc1ccc(C[C@H](N)C(=O)O)cc1

Target: Lactate dehydrogenase A [LDHA] (human, UniProt P00338 2-332)
Assay: cell-based or functional assay

Row | Binder | IC50 of LDH activity (Abcam LDH activity kit, lysates of NCI-H460 cells treated for 24 or 96 h) [µM]
1 | PRGPRPVWWRRWWRRWW (cyclic peptide (cyclo-[...])) [HILR-025 (cyclo-[Pro-Arg-Gly-Pro-Arg-Pro-Val-Trp-Trp-Arg-Arg-Trp-Trp-Arg-Arg-Trp-Trp])] | 16
2 | cyclo(PRGPRPVWW[Phe(4-guanidino)][Phe(4-guanidino)]WW[Phe(4-guanidino)][Phe(4-guanidino)]WW) [HILR-030 (cyclo-[Pro-Arg-Gly-Pro-Arg-Pro-Val-Trp-Trp-Gpa-Gpa-Trp-Trp-Gpa-Gpa-Trp-Trp])] | 22
